Data reported in paper PMC8295233 (Immunobiology, 2021).
One block for each molecule: values may come before it. No end group written: not given here.

Tests used:
[1] = molecular target: ERAP1_R (Homo sapiens, UniProt Q9NZ08); test: SPR binding analysis of peptide analytes to immobilized ERAP1_R; conditions: pH 6.2, read-out: ka
[2] = molecular target: ERAP1 regulatory domain, the domain part of the SPF and LPF fused constructs (human, UniProt Q9NZ08 529-941); test: crystal structure
[3] = molecular target: ERAP1 regulatory domain with a C-terminal His6-tag (human, UniProt Q9NZ08 529-941); test: SPR

kon [1]: 734 M⁻¹ s⁻¹
Molecule: LVAFKARKF [Free Peptide (LVAFKARKF), LVAFKARKF]

binding result [2]: binds
B1: LPF peptide (long peptide with Phe anchor), the peptide part of the LPF fused construct (peptide)
peptide: AAAAFKARKF

Kd [3]: 32 µM
koff [3]: 0.112 s⁻¹
kon [3]: 3500 M⁻¹ s⁻¹
B2: SPF single-chain fused construct (ERAP1_R with FKARKF fused to its C-terminal end), His6-tag removed (domain or fragment, human)
chain: GFPLITITVRGRNVHMKQEHYMKGSDGAPDTGYLWHVPLTFITSKSDMVHRFLLKTKTDVLILPEEVEWIKFNVGMNGYYIVHYEDDGWDSLTGLLKGTHTAVSSNDRASLINNAFQLVSIGKLSIEKALDLSLYLKHETEIMPVFQGLNELIPMYKLMEKRDMNEVETQFKAFLIRLLRDLIDKQTWTDEGSVSERMLRSQLLLLACVHNYQPCVQRAEGYFRKWKESNGNLSLPVDVTLAVFAVGAQSTEGWDFLYSKYQFSLSSTEKSQIEFALCRTQNKEKLQWLLDESFKGDKIKTQEFPQILTLIGRNPVGYPLAWQFLRKNWNKLVQKFELGSSSIAHMVMGTTNQFSTRTRLEEVKGFFSSLKENGSQLRCVQQTIETIEENIGWMDKNFDKIRVWLQSEKLERMFKARKF

Kd [3]: 21.3 µM
koff [3]: 0.091 s⁻¹
kon [3]: 4270 M⁻¹ s⁻¹
B3: LPF single-chain fused construct (ERAP1_R with AAAAFKARKF fused to its C-terminal end), His6-tag removed (domain or fragment, human)
chain: GFPLITITVRGRNVHMKQEHYMKGSDGAPDTGYLWHVPLTFITSKSDMVHRFLLKTKTDVLILPEEVEWIKFNVGMNGYYIVHYEDDGWDSLTGLLKGTHTAVSSNDRASLINNAFQLVSIGKLSIEKALDLSLYLKHETEIMPVFQGLNELIPMYKLMEKRDMNEVETQFKAFLIRLLRDLIDKQTWTDEGSVSERMLRSQLLLLACVHNYQPCVQRAEGYFRKWKESNGNLSLPVDVTLAVFAVGAQSTEGWDFLYSKYQFSLSSTEKSQIEFALCRTQNKEKLQWLLDESFKGDKIKTQEFPQILTLIGRNPVGYPLAWQFLRKNWNKLVQKFELGSSSIAHMVMGTTNQFSTRTRLEEVKGFFSSLKENGSQLRCVQQTIETIEENIGWMDKNFDKIRVWLQSEKLERMAAAAFKARKF

binding result [2]: binds
B4: SPF peptide (short peptide with Phe anchor), the peptide part of the SPF fused construct (peptide)
peptide: FKARKF

Kd [3]: 19.8 µM
koff [3]: 0.0145 s⁻¹
B5: free peptide LVAFKARKF (optimized ERAP1 substrate) (peptide)
peptide: LVAFKARKF
